Measured values published in patent publication US20260232732A1 (FUNDACI INSTITUT DE RECERCA CONTRA LA LEUC MIA JOSEP …, published 2026).
Blank lines part the entries; values can stand above or below the binder they belong to. Where no end group is shown, it is not given here. The star is where a group is joined. Biotin = O=C1N[C@H]2[C@H](CS[C@H]2CCCCC(=O)*)N1

How the values were obtained:
[1] = biological target: T1, biotin-peptide SMEDYVNFNF (human); test: ELISA biotin-peptide; scFv 0.625 ug/mL; repI
T1 peptide: Biotin-SMEDYVNFNF
Experimental: (§1) The peptides were synthesized naked or with a N-terminal Biotin modification with a purity of >98%. All four scFvs were verified by ELISA that can be detected with anti-His antibodies. ELISA was performed for scFv-peptide binding validation. Briefly, naked peptides were coated (50 μg/mL) in 0.58M carbonate-bicarbonate buffer pH9.5, 100 μL/well, 4° C. O/N. Then after blocking (3% BSA-PBS, 300 μL/well 37° C. 1.5 h) and washing (PBS+Tween-20 0.05% v/v (0.05% PBST), wells were incubated with each purified scFv antibody at concentration of 1 μg/mL in PBS at 37° C. 1 h. After washing (0.05% PBST), wells were incubated with secondary antibodies (goat anti-His IgG-HRP) in PBS, 37° C., 30 min. After washing, and incubation with TMB substrate, reactions were stopped with 2M HCl and reading was quantified at OD450.
(§2) ELISA with biotin-conjugated peptides (5 μg/mL) was performed very similar to described above with minor modifications.
(§3) A full curve ELISA was performed for each positive scFv/biotin-peptide pair in order to confirm previous results. Tables 15-17 show ELISA results of the dose-dependent full curve for each positive peptide with scFv “CCR9_HUM”, “Comp-2” and “Comp-3”, respectively.

[2] = biological target: T2, biotin-peptide TSSMEDYVNF (human); test: ELISA biotin-peptide; scFv 0.625 ug/mL; repI
T2 peptide: Biotin-TSSMEDYVNF
Experimental: as §1, §2, §3

[3] = biological target: T3, biotin-peptide SSMEDYVNFN (human); test: ELISA biotin-peptide; scFv 0.625 ug/mL; repI
T3 peptide: Biotin-SSMEDYVNFN
Experimental: as §1, §2, §3

[4] = biological target: T4, biotin-peptide MEDYVNFNFT (human); test: ELISA biotin-peptide; scFv 0.625 ug/mL; repI
T4 peptide: Biotin-MEDYVNFNFT
Experimental: as §1, §2, §3

[5] = biological target: T1, biotin-peptide SMEDYVNFNF; test: ELISA biotin-peptide; scFv 0.3125 ug/mL; repII
Experimental: as §1, §2, §3

[6] = biological target: T2, biotin-peptide TSSMEDYVNF; test: ELISA biotin-peptide; scFv 0.3125 ug/mL; repII
Experimental: as §1, §2, §3

[7] = biological target: T3, biotin-peptide SSMEDYVNFN; test: ELISA biotin-peptide; scFv 0.3125 ug/mL; repII
Experimental: as §1, §2, §3

[8] = biological target: T4, biotin-peptide MEDYVNFNFT; test: ELISA biotin-peptide; scFv 0.3125 ug/mL; repII
Experimental: as §1, §2, §3

[9] = biological target: T5, Peptide 3, non-conjugated (SSMEDYVNFN-C) (human); test: ELISA; Ab 0.25 ug/mL; repI
T5 construct: With the extra C-terminal Cys
T5 peptide: SSMEDYVNFNC
Experimental: (§4) In brief, plates with each non-conjugated peptide (50 μg/mL) or BSA-conjugated peptide (5 μg/mL) were coated in 0.58M carbonate-bicarbonate buffer pH9.5, 100 μL/well, at 4° C. […] After washing, wells were incubated with the 3, 3′,5,5′-Tetramethylbenzidine (TMB) HRP substrate and reactions were stopped with 2M HCl and OD450 was recorded.

[10] = biological target: T6, Peptide 1, non-conjugated (MADDYGSEST-C) (human); test: ELISA; Ab 0.25 ug/mL; repI
T6 construct: With the extra C-terminal Cys
T6 peptide: MADDYGSESTC
Experimental: as §4

[11] = biological target: T7, Peptide 1-BSA (MADDYGSEST-C conjugated to BSA) (human); test: ELISA; Ab 0.25 ug/mL; repI
T7 peptide: MADDYGSESTC(BSA)
Experimental: as §4

[12] = biological target: T8, Peptide 4, non-conjugated (SMEDYVNFNF-C) (human); test: ELISA; Ab 0.25 ug/mL; repI
T8 construct: With the extra C-terminal Cys
T8 peptide: SMEDYVNFNFC
Experimental: as §4

[13] = biological target: T9, BSA (negative control coating) (bovine, UniProt P02769 25-607); test: ELISA; Ab 0.25 ug/mL; repI
T9 construct: also called Negative control BSA
T9 sequence (P02769 25-607 limits assumed): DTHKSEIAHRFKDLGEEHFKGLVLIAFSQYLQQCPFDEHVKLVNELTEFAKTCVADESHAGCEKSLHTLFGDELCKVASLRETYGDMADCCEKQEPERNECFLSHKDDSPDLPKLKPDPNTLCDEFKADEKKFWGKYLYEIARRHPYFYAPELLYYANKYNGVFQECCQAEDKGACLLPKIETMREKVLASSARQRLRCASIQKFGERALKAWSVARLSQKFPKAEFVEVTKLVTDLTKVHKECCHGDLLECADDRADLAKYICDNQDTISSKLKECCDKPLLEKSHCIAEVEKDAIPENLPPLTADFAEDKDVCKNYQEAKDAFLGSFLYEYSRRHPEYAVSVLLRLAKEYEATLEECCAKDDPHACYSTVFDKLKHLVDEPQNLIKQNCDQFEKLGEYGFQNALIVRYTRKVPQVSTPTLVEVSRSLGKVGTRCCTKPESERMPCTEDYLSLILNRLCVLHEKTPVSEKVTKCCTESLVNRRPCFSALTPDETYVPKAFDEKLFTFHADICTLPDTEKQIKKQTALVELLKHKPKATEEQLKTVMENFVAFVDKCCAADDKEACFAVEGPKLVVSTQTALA
Experimental: as §4

[14] = biological target: T10, Peptide 3-BSA (SSMEDYVNFN-C conjugated to BSA) (human); test: ELISA; Ab 0.25 ug/mL; repI
T10 peptide: SSMEDYVNFNC(BSA)
Experimental: as §4

[15] = biological target: T11, Peptide 2, non-conjugated (GSESTSSMED-C) (human); test: ELISA; Ab 0.25 ug/mL; repI
T11 construct: With the extra C-terminal Cys
T11 peptide: GSESTSSMEDC
Experimental: as §4

[16] = biological target: T5, Peptide 3, non-conjugated (SSMEDYVNFN-C); test: ELISA; Ab 0.25 ug/mL; repII
Experimental: as §4

[17] = biological target: T6, Peptide 1, non-conjugated (MADDYGSEST-C); test: ELISA; Ab 0.25 ug/mL; repII
Experimental: as §4

[18] = biological target: T7, Peptide 1-BSA (MADDYGSEST-C conjugated …); test: ELISA; Ab 0.25 ug/mL; repII
Experimental: as §4

[19] = biological target: T12, Peptide 2-BSA (GSESTSSMED-C conjugated to BSA) (human); test: ELISA; Ab 0.25 ug/mL; repII
T12 peptide: GSESTSSMEDC(BSA)
Experimental: as §4

[20] = biological target: T13, Peptide 4-BSA (SMEDYVNFNF-C conjugated to BSA) (human); test: ELISA; Ab 0.25 ug/mL; repII
T13 peptide: SMEDYVNFNFC(BSA)
Experimental: as §4

[21] = biological target: T8, Peptide 4, non-conjugated (SMEDYVNFNF-C); test: ELISA; Ab 0.25 ug/mL; repII
Experimental: as §4

[22] = biological target: T9, BSA (negative control coating); test: ELISA; Ab 0.25 ug/mL; repII
Experimental: as §4

[23] = biological target: T10, Peptide 3-BSA (SSMEDYVNFN-C conjugated …); test: ELISA; Ab 0.25 ug/mL; repII
Experimental: as §4

[24] = biological target: T14, antigen peptide-BSA (immunisation peptide #1 MADDYGSESTSSMEDYVNFNF-C conjugated to BSA) (human, extra C-terminal Cys conjugated to BSA); test: ELISA; Ab 0.25 ug/mL; repII
T14 construct: also called Positive control antigen peptide-BSA; MADDY peptide
T14 peptide: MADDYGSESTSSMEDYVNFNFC
Experimental: as §4

[25] = biological target: T11, Peptide 2, non-conjugated (GSESTSSMED-C); test: ELISA; Ab 0.25 ug/mL; repII
Experimental: as §4

OD450 [1]: 1.71 OD
OD450 [2]: 0.78 OD
OD450 [3]: 1.73 OD
OD450 [4]: 1.53 OD
OD450 [5]: 1.65 OD
OD450 [6]: 0.45 OD
OD450 [7]: 1.73 OD
OD450 [8]: 1.35 OD
B1: CCR9_HUM2 scFv (humanized anti-CCR9 scFv, SEQ ID NO: 17 with C-terminal 6xHis tag) (scFv)
scFv: QVQLVQSGAEVKKPGASVKVSCTASGYSFTDYIIYWVKQAHGQSLEWMGYIDPNNYNTRYSQKFQGKVTITVDKSSTSAYMELNSLTSDDTAVYYCARDVYWGQGTTVTVSSGGGGSGGGGSGGGGSGGGGSDVVMTQTPLSLSVTPGQPASISCRSSQSLVHSNGKTYLQWYLQKPGQSPKLLIYKVSNRFSGVPDRFSGSGSGTDFTLKISRVEAEDVGVYFCAQSTHVWTFGGGTKVEIKRAHHHHHH

OD450 [9]: 1.89 OD
OD450 [10]: 0.02 OD
OD450 [11]: 0.02 OD
OD450 [12]: 2.09 OD
OD450 [13]: 0.01 OD
OD450 [14]: 1.95 OD
OD450 [15]: 0.02 OD
OD450 [16]: 1.8 OD
OD450 [17]: 0.02 OD
OD450 [18]: 0.02 OD
OD450 [19]: 0.02 OD
OD450 [20]: 2.53 OD
OD450 [21]: 2.24 OD
OD450 [22]: 0.02 OD
OD450 [23]: 2.05 OD
OD450 [24]: 2.42 OD
OD450 [25]: 0.01 OD
B2: anti-CCR9 antibody clone 115 (murine, from hybridoma #115) (antibody, V domains shown)
VH: QVQLKQSGPELVKPGTSVRVSCTASGYSFTDYIIYWVKQSHGRSLEWIGYIDPNNYNTRYSQKFKGKATLTVDKSSTSAFMHLNSLTSDDSAVYYCARDVYWGQGTTLTVSS
VL: DVVMTQTPLSLTVSLGDQASISCRSSQSLVHSNGKTYLQWYLQKPGQSPKLLIYKVSNRFSGVPDRFSGSGSGTDFTLKISRVEAEDLGVYFCAQSTHVWTFGGGTKLEIKR
notes: Mouse IgG1
